Source: patent publication US20110256127A1 (Genentech, published 2011)
“And” between values parts separate entries of the source, which are not always exact repeats. Equal entries are not always repeated.

Assays:
LRP6 on HEK293 cells = LRP6 on HEK293 cells (human, UniProt O75581 20-1613); assay: cell-based or functional assay
LRP6.E1-E2-Fc = LRP6.E1-E2-Fc (human); assay: ELISA
LRP6.E3-E4-Fc = biological target: T1, LRP6.E3-E4-Fc (human); assay: ELISA
T1 construct: also called LRP6.E3-4-Fc

[1] = biological target: T2, LRP6 (human; form used in the assay not stated) (human, UniProt O75581 20-1253, limits assumed); assay: Scatchard analysis; format not stated; Scatchard analysis
T2 construct: probably an E3-E4 fragment for SPR
T2 sequence: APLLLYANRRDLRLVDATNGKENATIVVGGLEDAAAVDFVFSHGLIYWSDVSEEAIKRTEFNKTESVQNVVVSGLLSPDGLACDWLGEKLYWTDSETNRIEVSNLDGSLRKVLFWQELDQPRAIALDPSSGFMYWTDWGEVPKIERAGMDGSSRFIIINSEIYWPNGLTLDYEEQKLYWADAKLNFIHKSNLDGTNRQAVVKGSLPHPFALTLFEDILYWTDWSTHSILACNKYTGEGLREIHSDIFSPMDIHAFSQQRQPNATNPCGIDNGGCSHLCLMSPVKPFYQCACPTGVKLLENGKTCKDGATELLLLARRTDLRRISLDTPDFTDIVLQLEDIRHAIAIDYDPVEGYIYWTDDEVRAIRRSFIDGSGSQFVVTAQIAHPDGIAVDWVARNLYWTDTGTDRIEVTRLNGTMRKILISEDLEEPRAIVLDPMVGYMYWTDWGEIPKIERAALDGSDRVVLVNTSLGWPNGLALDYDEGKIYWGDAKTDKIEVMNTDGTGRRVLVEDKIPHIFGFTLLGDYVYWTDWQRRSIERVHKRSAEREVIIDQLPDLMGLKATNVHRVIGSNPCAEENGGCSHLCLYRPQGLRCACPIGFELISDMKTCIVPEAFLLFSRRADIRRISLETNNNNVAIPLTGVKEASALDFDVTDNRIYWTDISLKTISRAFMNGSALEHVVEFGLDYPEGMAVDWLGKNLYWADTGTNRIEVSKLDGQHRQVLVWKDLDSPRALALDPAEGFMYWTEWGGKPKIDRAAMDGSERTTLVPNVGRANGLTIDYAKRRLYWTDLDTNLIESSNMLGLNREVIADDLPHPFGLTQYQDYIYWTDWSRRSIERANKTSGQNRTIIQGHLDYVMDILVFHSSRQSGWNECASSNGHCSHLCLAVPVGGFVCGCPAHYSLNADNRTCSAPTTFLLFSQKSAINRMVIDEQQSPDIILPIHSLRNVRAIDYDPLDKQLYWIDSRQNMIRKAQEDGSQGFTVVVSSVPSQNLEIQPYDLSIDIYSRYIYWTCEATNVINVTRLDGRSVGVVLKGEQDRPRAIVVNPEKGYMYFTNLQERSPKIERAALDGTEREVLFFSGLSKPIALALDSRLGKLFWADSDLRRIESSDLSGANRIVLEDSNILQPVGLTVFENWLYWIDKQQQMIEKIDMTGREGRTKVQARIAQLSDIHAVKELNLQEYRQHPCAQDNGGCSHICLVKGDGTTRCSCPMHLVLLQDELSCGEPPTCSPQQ

[2] = biological target: T2, LRP6 (human; form used in the assay not …); assay: SPR; LRP6 construct not stated; SPR
[3] = biological target: T3, LRP6.E1-E2 fragment (biotinylated, His-tagged) (Homo sapiens (Human), UniProt O75581 19-644, biotinylated (AviTag system)); assay: biolayer interferometry, immobilized LRP6 E1-E2 fragment; Wnt9b at 200 nM; association then dissociation phase
T3 construct: BLI antigen from baculovirus-infected insect cells; also called LRP6 E1-E2 protein fragment; not shown: His tag and AviTag
T3 sequence: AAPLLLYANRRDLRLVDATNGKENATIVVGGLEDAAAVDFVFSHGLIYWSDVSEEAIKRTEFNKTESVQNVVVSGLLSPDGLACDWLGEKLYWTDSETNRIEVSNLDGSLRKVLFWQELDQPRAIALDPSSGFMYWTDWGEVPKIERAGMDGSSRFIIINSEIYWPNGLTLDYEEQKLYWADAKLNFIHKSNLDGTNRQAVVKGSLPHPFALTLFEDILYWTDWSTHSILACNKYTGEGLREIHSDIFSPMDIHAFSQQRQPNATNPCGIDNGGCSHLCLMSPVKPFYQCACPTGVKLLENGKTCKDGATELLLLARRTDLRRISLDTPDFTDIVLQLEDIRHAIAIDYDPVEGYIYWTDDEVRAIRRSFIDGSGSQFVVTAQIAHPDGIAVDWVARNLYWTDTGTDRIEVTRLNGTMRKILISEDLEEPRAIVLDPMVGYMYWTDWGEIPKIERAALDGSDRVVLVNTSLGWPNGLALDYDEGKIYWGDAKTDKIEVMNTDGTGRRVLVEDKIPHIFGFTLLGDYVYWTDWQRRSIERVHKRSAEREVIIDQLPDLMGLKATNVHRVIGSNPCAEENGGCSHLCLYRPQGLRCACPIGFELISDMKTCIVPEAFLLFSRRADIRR
Protocol: Biolayer interferometry was performed as previously described (Bourhis et al., 2010). Briefly, biotinylated, His-tagged LRP6 proteins were purified from baculovirus-infected insect cells using the AviTag system (GeneCopoeia). Binding kinetics were measured on the Octet RED System (ForteBio) using Streptavidin High Binding FA Biosensors loaded with 20 μg/ml LRP6 protein.
In these assays, antibody binding to LRP6 protein was allowed to reach equilibrium, and the subsequent wavelength shift in the interference pattern is shown for association and dissociation phases of Wnt protein binding.

LRP6.E1-E2-Fc (human), sequence (chain, as listed by the source limits assumed): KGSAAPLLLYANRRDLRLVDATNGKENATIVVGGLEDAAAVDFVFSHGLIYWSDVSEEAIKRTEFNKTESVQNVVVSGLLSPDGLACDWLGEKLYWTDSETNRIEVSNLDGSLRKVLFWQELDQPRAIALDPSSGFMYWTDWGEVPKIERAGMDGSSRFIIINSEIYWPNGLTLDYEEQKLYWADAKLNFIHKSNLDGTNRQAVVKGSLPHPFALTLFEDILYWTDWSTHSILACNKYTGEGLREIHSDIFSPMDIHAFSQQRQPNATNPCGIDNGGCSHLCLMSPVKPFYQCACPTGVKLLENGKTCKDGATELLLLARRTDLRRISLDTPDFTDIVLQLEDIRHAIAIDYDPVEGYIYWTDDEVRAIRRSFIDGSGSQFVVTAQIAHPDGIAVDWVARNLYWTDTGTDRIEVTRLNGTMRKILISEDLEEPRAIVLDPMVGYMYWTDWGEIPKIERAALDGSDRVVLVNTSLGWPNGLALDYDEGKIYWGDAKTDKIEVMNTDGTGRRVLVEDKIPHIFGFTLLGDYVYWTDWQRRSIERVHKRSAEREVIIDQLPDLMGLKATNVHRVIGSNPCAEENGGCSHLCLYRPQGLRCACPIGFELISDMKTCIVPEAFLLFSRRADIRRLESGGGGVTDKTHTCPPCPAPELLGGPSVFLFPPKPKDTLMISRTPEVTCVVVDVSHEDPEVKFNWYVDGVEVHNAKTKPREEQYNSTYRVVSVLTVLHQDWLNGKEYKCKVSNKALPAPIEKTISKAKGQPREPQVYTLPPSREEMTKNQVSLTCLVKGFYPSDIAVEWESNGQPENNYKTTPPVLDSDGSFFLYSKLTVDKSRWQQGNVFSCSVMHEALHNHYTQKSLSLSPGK
T1 sequence (chain, as listed by the source limits assumed): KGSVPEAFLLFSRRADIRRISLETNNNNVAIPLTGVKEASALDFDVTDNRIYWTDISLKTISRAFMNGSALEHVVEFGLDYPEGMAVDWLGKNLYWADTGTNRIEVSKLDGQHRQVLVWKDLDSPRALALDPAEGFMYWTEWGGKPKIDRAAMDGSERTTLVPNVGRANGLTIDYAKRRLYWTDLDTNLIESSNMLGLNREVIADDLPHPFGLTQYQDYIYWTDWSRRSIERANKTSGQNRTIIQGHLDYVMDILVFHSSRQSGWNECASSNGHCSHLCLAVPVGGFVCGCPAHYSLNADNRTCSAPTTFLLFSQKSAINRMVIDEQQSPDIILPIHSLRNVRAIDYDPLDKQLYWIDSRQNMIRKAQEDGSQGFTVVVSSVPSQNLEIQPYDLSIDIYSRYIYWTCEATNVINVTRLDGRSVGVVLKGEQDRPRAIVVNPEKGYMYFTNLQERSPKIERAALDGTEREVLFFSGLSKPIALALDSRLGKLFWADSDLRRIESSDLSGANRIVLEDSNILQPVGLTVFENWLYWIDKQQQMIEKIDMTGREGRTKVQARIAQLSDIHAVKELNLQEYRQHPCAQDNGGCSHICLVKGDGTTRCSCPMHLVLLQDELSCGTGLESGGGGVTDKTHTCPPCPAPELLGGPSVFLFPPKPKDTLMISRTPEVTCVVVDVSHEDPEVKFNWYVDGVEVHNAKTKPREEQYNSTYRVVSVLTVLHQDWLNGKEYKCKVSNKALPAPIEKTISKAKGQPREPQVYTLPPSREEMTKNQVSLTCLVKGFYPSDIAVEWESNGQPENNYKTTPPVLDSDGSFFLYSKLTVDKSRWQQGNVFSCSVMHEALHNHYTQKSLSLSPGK

B1: YW211.31 antibody (antibody, human IgG1, kappa, V domains shown)
VH: EVQLVESGGGLVQPGGSLRLSCAASGFTFTSYYISWVRQAPGKGLEWVAEISPYSGSTYYADSVKGRFTISADTSKNTAYLQMNSLRAEDTAVYYCALRARPPIRLHPRGSVMDYWGQGTLVTVSS
VL: DIQMTQSPSSLSASVGDRVTITCRASQDVSTAVAWYQQKPGKAPKLLIYSASFLYSGVPSRFSGSGSGTDFTLTISSLQPEDFATYYCQQSYTTPPTFGQGTKVEIKR
notes: also called intact YW211.31 antibody
IC50, inhibition of signaling (Wnt luciferase reporter) in Wnt3a-stimulated HEK293 cells (LRP6 on HEK293 cells): ~1 ug/ml and ~6 nM | binding result (LRP6.E1-E2-Fc): no binding | binding result (LRP6.E3-E4-Fc): binds | Kd [1]: ~0.6 nM | Kd [2]: ~2 nM

B2: Wnt9b (ligand, mouse, UniProt O35468 24-359, looked up)
chain: AAYFGLTGREVLTPFPGLGTAAAPAQAGAHLKQCDLLKLSRRQKQLCRREPGLAETLRDAAHLGLLECQFQFRQERWNCSLEGRTGLLQRGFKETAFLYAVSAAALTHALARACSAGRMERCTCDDSPGLESRQAWQWGVCGDNLKYSTKFLSNFLGPKRGSKDLRARADAHNTHVGIKAVKSGLRTTCKCHGVSGSCAVRTCWKQLSPFRETGQVLKLRYDTAVKVSSATNEALGRLELWAPAKPGGPAKGLAPRPGDLVYMEDSPSFCRPSKYSPGTAGRVCSRDSSCSSLCCGRGYDTQSRMVVFSCHCQVQWCCYVECQQCAQQELVYTCKR
notes: also called purified mouse Wnt9b
binding result [3]: binds
